Test results from IntAct's records for PubMed 25363763.

B1: Cell adhesion molecule CEACAM1 (Homo sapiens), P13688 (parent)
chain: MGHLSAPLHRVRVPWQGLLLTASLLTFWNPPTTAQLTTESMPFNVAEGKEVLLLVHNLPQQLFGYSWYKGERVDGNRQIVGYAIGTQQATPGPANSGRETIYPNASLLIQNVTQNDTGFYTLQVIKSDLVNEEATGQFHVYPELPKPSISSNNSNPVEDKDAVAFTCEPETQDTTYLWWINNQSLPVSPRLQLSNGNRTLTLLSVTRNDTGPYECEIQNPVSANRSDPVTLNVTYGPDTPTISPSDTYYRPGANLSLSCYAASNPPAQYSWLINGTFQQSTQELFIPNITVNNSGSYTCHANNSVTGCNRTTVKTIIVTELSPVVAKPQIKASKTTVTGDKDSVNLTCSTNDTGISIRWFFKNQSLPSSERMKLSQGNTTLSINPVKREDAGTYWCEVFNPISKNQSDPIMLNVNYNALPQENGLSPGAIAGIVIGVVALVALIAVALACFLHFGKTGRASDQRDLTEHKPSVSNHTQDHSNDPPNKMNEVTYSTLNFEAQQPTQPTSASPSLTATEIIYSEVKKQ

Variants of: B1
Conditions: with havr2_human HAVCR2, Q8TDQ0

| effect of a mutation on the interaction | Variant |
| --- | --- |
| decreasing interaction strength | Q123H |
| decreasing interaction strength | Q78L |
| decreasing interaction strength | N76A |
| disrupting interaction strength | G81A |
